# T1: klTRBD klEst2 171-422 (Kluyveromyces lactis, UniProt Q6CSS0 171-422)
# T1 sequence: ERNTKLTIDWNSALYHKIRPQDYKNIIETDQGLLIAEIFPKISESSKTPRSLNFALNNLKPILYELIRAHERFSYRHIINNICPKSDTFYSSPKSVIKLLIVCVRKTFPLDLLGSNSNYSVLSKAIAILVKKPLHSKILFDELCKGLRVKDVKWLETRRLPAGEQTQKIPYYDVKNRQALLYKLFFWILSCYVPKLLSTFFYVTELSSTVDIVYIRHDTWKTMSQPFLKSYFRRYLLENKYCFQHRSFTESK
# T2: klEst2 full-length (TERT) (Kluyveromyces lactis, UniProt Q6CSS0 1-861)
# T2 sequence: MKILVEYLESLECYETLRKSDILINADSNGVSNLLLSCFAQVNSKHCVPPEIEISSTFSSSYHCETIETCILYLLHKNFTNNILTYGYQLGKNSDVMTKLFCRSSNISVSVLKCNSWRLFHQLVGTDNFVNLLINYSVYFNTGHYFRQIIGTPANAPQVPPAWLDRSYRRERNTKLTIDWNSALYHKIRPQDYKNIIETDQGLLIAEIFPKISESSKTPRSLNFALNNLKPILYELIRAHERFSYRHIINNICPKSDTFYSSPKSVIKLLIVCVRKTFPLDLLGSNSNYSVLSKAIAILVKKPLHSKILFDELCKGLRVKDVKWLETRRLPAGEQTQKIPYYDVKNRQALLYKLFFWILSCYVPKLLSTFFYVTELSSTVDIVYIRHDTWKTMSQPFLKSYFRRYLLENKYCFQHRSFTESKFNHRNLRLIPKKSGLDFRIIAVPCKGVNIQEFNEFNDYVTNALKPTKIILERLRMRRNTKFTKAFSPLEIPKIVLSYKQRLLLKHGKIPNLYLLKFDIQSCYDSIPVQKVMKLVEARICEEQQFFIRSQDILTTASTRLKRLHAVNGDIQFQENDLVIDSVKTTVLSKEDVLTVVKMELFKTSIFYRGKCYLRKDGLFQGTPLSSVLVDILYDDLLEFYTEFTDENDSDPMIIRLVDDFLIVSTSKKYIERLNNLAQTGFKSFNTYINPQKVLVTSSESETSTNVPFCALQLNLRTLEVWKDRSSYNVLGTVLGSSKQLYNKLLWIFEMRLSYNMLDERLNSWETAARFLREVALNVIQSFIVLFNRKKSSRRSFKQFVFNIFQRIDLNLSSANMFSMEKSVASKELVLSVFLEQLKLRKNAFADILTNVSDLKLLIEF
# T3: klTRBD klEst2 171-404 (Kluyveromyces lactis, UniProt Q6CSS0 171-404)
# T3 sequence: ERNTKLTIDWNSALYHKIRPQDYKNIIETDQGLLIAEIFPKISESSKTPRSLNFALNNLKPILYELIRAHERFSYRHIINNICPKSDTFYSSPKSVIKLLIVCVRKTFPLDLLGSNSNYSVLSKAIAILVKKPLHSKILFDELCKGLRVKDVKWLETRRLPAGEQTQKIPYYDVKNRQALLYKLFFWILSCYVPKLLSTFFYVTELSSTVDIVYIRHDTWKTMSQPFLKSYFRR
# B1: T + TBE (structured_RNA)
# RNA: GGUAAGGACCAGUGCCACGAAAGUGGUACUUCAAAUCCGUACACCACAUACCUAAUCAAAACCG
# What was measured:
# Assay in all cases: EMSA; 1 nM RNA, tRNA competitor; 25 mM Tris-HCl pH 7.5, 50 mM KCl, 1 mM MgCl2, 1 mM DTT, 10% glycerol, 0.1% Triton, 0.5 mg/mL BSA, 1.7 ng/uL yeast tRNA, 1 nM RNA probe; 15 min on ice then 10 min room temperature; gel at 6 C
# [1] = molecular target: T1, klTRBD klEst2 171-422; conditions: protein: recombinant; tags: N-terminal His-SUMO, TEV-cleaved; label: 5'-32P when probe; hairpin (TBE) with template
# [2] = molecular target: T2, klEst2 full-length (TERT); conditions: protein: recombinant; tags: expressed in E. coli; His-SUMO tag described for the TRBD constructs, tag of full-length not clearly stated; label: 5'-32P when probe; hairpin (TBE) with template
# [3] = molecular target: T3, klTRBD klEst2 171-404; conditions: protein: recombinant; tags: N-terminal His-SUMO, TEV-cleaved; label: 5'-32P when probe; hairpin (TBE) with template
binder,measurement,setting,value
B1,binding result,[1],no binding
same,binding result,[2],binds
same,binding result,[3],no binding
